Data taken from article PMC6335408.
Blank lines part the entries; values can stand above or below the substance they belong to.

Legend:
[1] = target: USP7 C-terminal tail peptide (residues 1083-1102), biotinylated (UniProt Q93009); test: SPR; N-terminally biotinylated C-terminal tail peptide immobilised (~30 RU) on SA chip, CD or CDUb flowed over; Biacore T200, 25 °C; same running buffer
GST-Ubl45 (immobilised) [2] = target: GST-Ubl45 (immobilised) (UniProt Q93009); test: SPR; GST-Ubl45 or GST-Ubl45ΔC captured by anti-GST antibody on CM5 chip, covalent CDUb flowed over; Biacore T200, 25 °C; same running buffer; equilibrium fit and EvilFit
GST-Ubl45 (immobilised) [3] = target: GST-Ubl45 (immobilised) (UniProt Q93009); test: SPR; around 50 units of Ubl45 immobilised, titration range of p53Ub-bound TCD flowed over; equilibrium fit
[4] = target: USP7 catalytic domain CD (Homo sapiens) (UniProt Q93009); test: activation assay; conditions: cited from earlier work
[5] = target: USP7 CD45 (catalytic domain linked to Ubl45); test: SEC-MALS; Superdex 200 in 20 mM HEPES pH 7.5, 100 mM NaCl, 1 mM DTT, in-line MALLS; CD45 100 µL of 45 µM, FL 80 µL of 20 µM loaded
USP7 CD12345^ΔC = USP7 CD12345^ΔC (UniProt Q93009)
[6] = target: USP7 catalytic domain (CD)
[7] = target: TAMRA-labelled p53 peptide (UniProt P04637); test: fluorescence polarisation; 25 nM TAMRA-p53 peptide with a dilution series of USP7 constructs; plate reader; 20 mM HEPES pH 7.5, 100 mM NaCl, 1 mM DTT, 1 mM EDTA, 0.05% Tween-20
[8] = target: USP7-TCD (TRAF domain and catalytic domain, lacks all Ubl domains); test: covalent suicide-probe reaction (preparative); 120 µM CD (or TCD) incubated overnight with an excess of probe and Ubl45 (both 150 µM) under dialysis against 20 mM HEPES pH 7.5, 50 mM NaCl, 2 mM DTT
[9] = target: USP7-TCD (TRAF domain and catalytic domain, lacks all Ubl domains)
[10] = target: USP7 CD12345 (catalytic domain with Ubl domains 1-5 and tail, no TRAF domain) (UniProt Q93009)
full-length (FL) USP7 = full-length (FL) USP7 (UniProt Q93009)
[11] = target: USP7 catalytic domain (CD); test: covalent suicide-probe reaction (preparative); 120 µM CD (or TCD) incubated overnight with an excess of probe and Ubl45 (both 150 µM) under dialysis against 20 mM HEPES pH 7.5, 50 mM NaCl, 2 mM DTT

Substance: USP7 C-terminal peptide C-terminal tail (from UniProt Q93009)
Kd [4]: 1000 µM

Substance: full-length (FL) USP7 (from UniProt Q93009 1-1102) (enzyme)
Kd [7]: 0.16 µM

Substance: p53UbVA (covalently binding, vinylamide-linked ubiquitinated p53 peptide, res. 357-389) (from UniProt P04637 357-389; P0CG48 1-76)
percent reacted with the probe [8]: 100%

Substance: ubiquitin-propargyl (Ub-PA) suicide probe (from UniProt P0CG48 1-76)
percent of CD reacted with the probe [11]: 80%

Results, then the substance that gave them:

Kd [1]: 2.6 µM
Kd (GST-Ubl45 (immobilised) [2]): 0.59 µM
koff (GST-Ubl45 (immobilised) [2]): 0.8 s⁻¹
Substance: CDUb (USP7 catalytic domain covalently coupled to ubiquitin through Ub-PA) (from UniProt P0CG48 1-76) (complex)

Kd (GST-Ubl45 (immobilised) [3]): 2.9 µM
Substance: TCD-p53Ub (USP7-TCD covalently bound to the p53UbVA probe) (from UniProt P04637 357-389; P0CG48 1-76) (complex)

stoichiometry N [5]: 2
Substance: USP7 CD45 (catalytic domain linked to Ubl45) (domain or fragment)

apparent KD (K (D,app)) from activation of CD12345^ΔC (20 nM) DUB activity on UbRho, titration of CD12345^C223A (USP7 CD12345^ΔC): 60 µM
Substance: USP7 CD12345^C223A (from UniProt Q93009 1-1102) (domain or fragment)

apparent KD from in trans activation of CD (20 nM) DUB activity on UbRho, titration of Ubl45 [6]: 110 µM
Substance: USP7 Ubl45 (last two Ubl domains with the activating C-terminal tail) (from UniProt Q93009 890-1102) (domain or fragment)

IC50 of inhibition of UbRho hydrolysis by p53Ubinh (TCD 200 nM): fold by which the IC50 of FL is better than that of TCD [9]: 60 fold
IC50 of inhibition of UbRho hydrolysis by p53Ubinh (CD12345 0.35 nM): fold by which the IC50 of FL is better than that of CD12345 [10]: 60 fold
IC50 of inhibition of UbRho hydrolysis by p53Ubinh (FL 0.35 nM, UbRho 0.4 µM) (full-length (FL) USP7): 0.016 µM
Substance: p53Ubinh (non-hydrolysable, triazole-linked ubiquitinated p53 peptide) (from UniProt P04637 357-389; P0CG48 1-76)
